Experimental data from US6867008 (NEW ENGLAND MEDICAL CENTER HOSPITALS, dated 2005).

B1: EC1/AD (ovine clone EC1, MAD2 homolog, fused to the Gal4 activating domain, vector pGAD10) (other, not shown: large carriers)
chain: REQGITLRGSAEIVAEFFSFGINSILYQRGIYPSETFTRVQKYGLTLLVTTDPELIKYLNNVVDQLKEWLYKCSVQKLVVVISNIESGEVLERWQFDIECDKTAKDDSAPREKSQKAIQDEIRSVIRQITATVTFLPLLEVSCSFDLLIYTDKDLVVPEKWEESGPQFITNSEEVRLRSFTTTIHKVNSMVAYKIPVHD
notes: Library clone from ovine pulmonary artery endothelial cells; also called EC1/GalAD
B2: GST-EC1 (other)
chain: B1 chain
notes: Immobilised on glutathione-Sepharose beads; also called GST-MAD2 clone; GST MAD2; not shown: glutathione S-transferase of vector pGEX-4T-1

Key:
[1] = target: T1, hERα/BD (human estrogen receptor alpha fused to the Gal4 DNA binding domain) (human, UniProt P04386 1-147; P03372 1-595); experiment: yeast two-hybrid
T1 construct: also called ERα/GalBD; hERα/GalBD
Description: Screening of the ovine library yielded clone EC1. […] Yeast strain Y190 was transformed with mERβ/BD in combination with EC1/AD and GalAD respectively and plated on Sc-His (synthetic complete medium, minus histidine) and YPD (yeast extract, peptone, dextrose) plates (FIG. 1A). […] Yeast strain Y190 was also transformed with human ER alpha (hERα)/BD in combination with EC1/AD, hERα/BD and Trip 1/AD and plated on Sc-His and YPD plates. Positive interaction of hERα/BD with […] and Trip 1/GalAD was seen only in the presence of estrogen. Colony lift β-Galactosidase assays were also performed with yeasts from the YPD plate in both FIG. 1A and 1B. TIF2 and TRIP1 homologs were found previously by screening a human heart library with mERβ as bait. […] This implies a new function for ER beta that may be separated from its estrogen binding function.

mERβ1-516/GalBD = target: T2, mERβ1-516/GalBD (mouse, UniProt P04386 1-147; O08537 46-217); experiment: yeast two-hybrid, HIS and β-galactosidase reporters
T2 construct: Expression in Y190 confirmed by Western blot

mERβ1-622/GalBD = target: T3, mERβ1-622/GalBD (mouse, UniProt P04386 1-147; O08537 46-252); experiment: as above
T3 construct: about the first 207 codons of the short variant ORF (my reading)

[2] = target: T4, [35S]hERα (in vitro translated human estrogen receptor alpha) (human, UniProt P03372 1-595, [35S]methionine labelled); experiment: GST pull-down, SDS-PAGE and autoradiography
T4 construct: also called [^35S] labeled hERα; ER alpha
T4 sequence (looked up): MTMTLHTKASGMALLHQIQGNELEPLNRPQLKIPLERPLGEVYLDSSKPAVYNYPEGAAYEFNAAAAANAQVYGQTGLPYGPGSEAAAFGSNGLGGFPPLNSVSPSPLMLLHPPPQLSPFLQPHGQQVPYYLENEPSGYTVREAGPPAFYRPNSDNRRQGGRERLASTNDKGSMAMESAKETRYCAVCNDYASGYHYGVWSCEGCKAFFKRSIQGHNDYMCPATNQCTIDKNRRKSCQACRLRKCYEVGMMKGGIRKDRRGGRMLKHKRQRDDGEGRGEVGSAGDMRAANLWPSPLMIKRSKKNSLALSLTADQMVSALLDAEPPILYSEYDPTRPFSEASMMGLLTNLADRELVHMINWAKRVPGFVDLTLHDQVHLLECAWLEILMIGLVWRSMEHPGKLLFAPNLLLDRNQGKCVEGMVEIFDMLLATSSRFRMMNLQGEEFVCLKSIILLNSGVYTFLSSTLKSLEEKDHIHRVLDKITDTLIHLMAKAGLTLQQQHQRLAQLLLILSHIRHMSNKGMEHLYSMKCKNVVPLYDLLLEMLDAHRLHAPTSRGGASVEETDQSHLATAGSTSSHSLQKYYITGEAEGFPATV
Method: Recombinant proteins were incubated at 4° in suspension buffer (20 mM Tris pH7.4, 137 mM NaCl, 2 mM EDTA pH7.4, 1% TritonX-100, 10% Glycerol, 25 mM β-glycerolphosphate, 1 mM Na vanadate, […], 1 mM PMSF) with either one of the GST fusion proteins immobilized on glutathione-Sepharose beads for 1 hour. Beads were then washed three times in suspension buffer, boiled 5 minutes in SDS sample buffer, and associated proteins resolved by SDS-PAGE. Labeled protein bands in gels were then visualized by autoradiography.
[^35S] labeled mERβ was incubated with GST-beads (Lane 2) and GST-EC1 beads (Lane 3) followed by SDS-PAGE and autoradiography. […] In the complementary experiment (FIG. 4B), [^35S]-labeled hsMAD2 was incubated with GST beads (Lane 2) and GST-mERP beads (Lane 3) followed by SDS-PAGE and autoradiography. […] MAD2 input (FIG. 4B). GST-fusion protein interaction studies were also done with hERα. [^35S] labeled hERα was incubated with GST-mERβ (Lane 2, positive control), GST-beads (Lane 3) and GST-EC1 beads followed by SDS-PAGE and autoradiography.

Binder | binding result [1] | binding result (mERβ1-516/GalBD) | binding result (mERβ1-622/GalBD) | binding result [2]
B1 | no binding | no binding | binds | –
B2 | – | – | – | no binding
